From paper PMC6819661 come the findings set out here.

For one data set, the system named is GST-NS2A (Zika virus). The data set is described as follows: EMSA. Particulars: EMSA: 50 mM Tris-HCl pH 7.5, 10 mM 2-mercaptoethanol, 2 mM MgCl2, 50 mM KCl, 15 min at 24 C, 100 pM biotinylated RNA, 0.4% agarose; pull-down: Pierce magnetic …. Background: In EMSA bound probe runs differently from free probe, usually more slowly.
Data set [1] concerns GST-NS2A(58-133) (Zika virus). The data set is described as follows: pull-down. Particulars: EMSA: 50 mM Tris-HCl pH 7.5, 10 mM 2-mercaptoethanol, 2 mM MgCl2, 50 mM KCl, 15 min at 24 C, 100 pM biotinylated RNA, 0.4% agarose; pull-down: Pierce magnetic ….

What is called Kd is the constant that tells how readily two partners part at equilibrium. Read a low Kd as a tighter complex.

For the substance 5' UTR-C66-3' UTR-biotin RNA, the Kd in the data set on GST-NS2A (Zika virus) was determined as 10.3 nM. Besides, the binding signal (% (reference)) in data set [1] came out at 100.
